Test results taken from IntAct's records for PubMed 9162036.

Biological target: ap2m1_rat Ap2m1 (UniProt P84092)
Sequence (P84092 whole entry): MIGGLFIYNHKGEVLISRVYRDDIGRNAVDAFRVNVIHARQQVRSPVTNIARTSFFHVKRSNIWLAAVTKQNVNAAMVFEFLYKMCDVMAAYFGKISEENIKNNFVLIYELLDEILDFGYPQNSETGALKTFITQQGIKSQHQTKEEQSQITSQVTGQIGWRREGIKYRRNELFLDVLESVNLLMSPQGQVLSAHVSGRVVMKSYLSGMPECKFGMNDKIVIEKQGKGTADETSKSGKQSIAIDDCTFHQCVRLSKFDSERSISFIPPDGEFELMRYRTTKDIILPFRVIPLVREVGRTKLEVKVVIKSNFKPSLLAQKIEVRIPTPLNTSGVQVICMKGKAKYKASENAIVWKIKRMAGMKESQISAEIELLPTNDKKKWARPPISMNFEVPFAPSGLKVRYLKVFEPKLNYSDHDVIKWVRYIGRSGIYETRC

Sequence of Trans-Golgi network integral membrane protein TGN38 (Rattus norvegicus (Rat)), P19814 Y350A (P19814 whole entry Y350A): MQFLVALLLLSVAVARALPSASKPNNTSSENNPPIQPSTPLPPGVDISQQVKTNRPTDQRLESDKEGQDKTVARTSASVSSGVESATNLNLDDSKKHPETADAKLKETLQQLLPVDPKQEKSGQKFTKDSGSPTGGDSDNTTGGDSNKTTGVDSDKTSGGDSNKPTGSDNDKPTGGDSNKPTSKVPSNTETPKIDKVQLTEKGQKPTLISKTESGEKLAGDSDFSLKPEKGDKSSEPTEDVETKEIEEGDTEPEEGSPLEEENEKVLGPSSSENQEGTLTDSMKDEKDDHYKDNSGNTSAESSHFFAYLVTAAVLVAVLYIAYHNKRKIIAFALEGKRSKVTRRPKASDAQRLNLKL
Sequence of Trans-Golgi network integral membrane protein TGN38 (Rattus norvegicus (Rat)), P19814 S348A (P19814 whole entry S348A): as the sequence (P19814 whole entry Y350A) above, with S348A, A350Y counted along it

Row | effect of a mutation on the interaction | Substance
1 | decreasing interaction | Trans-Golgi network integral membrane protein TGN38 (Rattus norvegicus (Rat)), P19814 S348A
2 | decreasing interaction | Trans-Golgi network integral membrane protein TGN38 (Rattus norvegicus (Rat)), P19814 Y350A
